T1: Recombinant human RAD51 (residues 21-339, C-terminal Leu-Glu-His6) (human, UniProt Q06609 21-339)
T1 chain: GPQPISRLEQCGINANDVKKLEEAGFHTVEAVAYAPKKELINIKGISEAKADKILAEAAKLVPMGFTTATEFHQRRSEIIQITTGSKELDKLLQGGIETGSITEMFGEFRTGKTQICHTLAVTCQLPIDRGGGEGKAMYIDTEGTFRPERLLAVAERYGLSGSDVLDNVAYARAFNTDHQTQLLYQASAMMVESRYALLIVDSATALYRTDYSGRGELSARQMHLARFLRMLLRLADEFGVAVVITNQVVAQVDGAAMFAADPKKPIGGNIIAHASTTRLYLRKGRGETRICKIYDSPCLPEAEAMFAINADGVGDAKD


Columns and labels:
[1] = target: T1, Recombinant human RAD51 (residues …); assay: BLI
[2] = target: T2, Recombinant human RAD51 (residues 21-339, C-terminal Leu-Glu-His6) (Homo sapiens, UniProt Q06609); assay: BLI; Fab (about 0.5 nm) immobilised on Protein L biosensors, range of RAD51 concentrations in solution; 25 °C, PBS pH 7.4 with 0.1% Tween 20 and 10 mg/mL BSA; global fit, 1:1 Langmuir model, reference well subtracted; details: both partners purified
T2 construct: RAD51, Homo sapiens, residues 21-339, inserted between the NcoI and XhoI sites of pET28a; Cloning at the NcoI site may add a start methionine; also called purified RAD51; plasmid-expressed RAD51; source: E. coli Rosetta(DE3), pET28a-RAD51, purified (ammonium sulfate, DE52 anion exchange, HiTrap Ni-chelating column); also in E. coli whole cell lysate

[3] = target: T2, Recombinant human RAD51 (residues …); assay: cell-based or functional assay
RAD51 = RAD51 (Homo sapiens, UniProt Q06609 21-339); assay: BLI; no Fab-F2; 1:1 Langmuir global fit; BLI on streptavidin biosensors; 0.5 uM RAD51 for the inhibition assay; buffer, salt, pH and temperature not given in the material (RAD51 dialyzed into PBS); details: protein: recombinant; label: 5'-biotin; single strand

| Binder | koff [1] [s⁻¹] | Kd [2] [nM] | koff, fold lower than for Fab-F2 [2] [fold] | kon, fold lower than for Fab-F2 [2] [fold] | inhibition of RAD51 (500 nM, pre-incubated with various concentrations of Fab-F2) binding to immobilised 5'-biotinylated oligo(dT)36 ssDNA, by BLI; IC50 [3] [nM] | koff [2] [s⁻¹] | kon [2] [M⁻¹ s⁻¹] | Kd (RAD51) [nM] |
| --- | --- | --- | --- | --- | --- | --- | --- | --- |
| Fab-F2-iPTD (Fab, V domains shown, as the heavy chain of m2; as the light chain of m2; also called cell-penetrating Fab-F2-iPTD; source: E. coli, pCW-Fab-F2-iPTD, purified) VH: EVQLVESGGGLVQPGGSLRLSCAASGFTFSSYGMHWVRQAPGKGLEWVAVISYDGSNKYYADSVKGRFTISADTSKNTAYLQMNSLRAEDTAVYYCARTYSYASRGWYDYWGQGTLVTVSS VL: DIQMTQSPSSLSASVGDRVTITCRASQGISNYLAWYQQKPGKAPKLLIYAASSLQSGVPSRFSGSRSGTDFTLTISSLQPEDFATYYCQQGTYLPLTFGQGTKVEIK | 0.000658 | 18.2 | ~2 | ~2 | – | – | – | – |
| Fab-F2 (Fab, V domains shown, Human IgG1 synthetic Fab from phage Library S (randomised CDRL3 and CDRH3, canonical other CDRs); In the Western blots the Fab was labelled with IRDye 800CW; also called IRDye 800CW-labeled Fab-F2; source: also in small-scale E. coli lysate) VH: EVQLVESGGGLVQPGGSLRLSCAASGFTFSSYGMHWVRQAPGKGLEWVAVISYDGSNKYYADSVKGRFTISADTSKNTAYLQMNSLRAEDTAVYYCARTYSYASRGWYDYWGQGTLVTVSS VL: DIQMTQSPSSLSASVGDRVTITCRASQGISNYLAWYQQKPGKAPKLLIYAASSLQSGVPSRFSGSRSGTDFTLTISSLQPEDFATYYCQQGTYLPLTFGQGTKVEIK | – | 8.1 ± 0.21 | – | – | < 125 | 0.000156 | 19300 | – |
| TTTTTTTTTTTTTTTTTTTTTTTTTTTTTTTTTTTT (ssDNA) [oligo(dT)36] | – | – | – | – | – | – | – | 27.6 ± 4.75 |
